Reference: patent US5821046A, “RNA oligonucleotides that bind HIV tat protein” (RiboTargets Holdings PLC, priority 1990, dated 1998)
Substitutions are numbered along the chain they refer to.

Key:
HIV-1 Tat [1] = molecular target: T1, HIV-1 Tat (Human immunodeficiency virus 1, UniProt P04608 P04608:1-86); experiment: filter; D1/2 66 nM; complex in EMSA; conditions: stem-loop with bulge
HIV-1 Tat [2] = molecular target: T1, HIV-1 Tat; experiment: filter; D1/2 76 nM; compensatory mutation restores binding; conditions: stem-loop with bulge
HIV-1 Tat [3] = molecular target: T1, HIV-1 Tat; experiment: competition; D1/2 vs 10 nM 59-mer probe (59-mer 40 nM); 60 nM vs 29-mer probe; conditions: hairpin with U-rich bulge and loop
HIV-1 Tat [4] = molecular target: T1, HIV-1 Tat; experiment: filter; D1/2 160 nM; about 2.5-fold lower affinity; complex in EMSA; conditions: stem-loop with 2-nt bulge
HIV-1 Tat [5] = molecular target: T1, HIV-1 Tat; experiment: competition; D1/2; 18+15 duplex probe; 59-mer 18 nM; conditions: duplex with UUU bulge, no apical loop
HIV-1 Tat [6] = molecular target: T1, HIV-1 Tat; experiment: competition; D1/2; unmodified 18+15 duplex 65 nM; 59-mer 18 nM; conditions: duplex with bulge
HIV-1 Tat [7] = molecular target: T1, HIV-1 Tat; experiment: filter; D1/2 420 nM in table (290 nM in text); no complex in EMSA; conditions: stem-loop without bulge
HIV-1 Tat [8] = molecular target: T1, HIV-1 Tat; experiment: filter; D1/2 680 nM; no complex in EMSA; conditions: stem-loop, upper stem disrupted
HIV-1 Tat [9] = molecular target: T1, HIV-1 Tat; experiment: filter; no complex in EMSA; conditions: stem-loop
Rev = conditions: references 33, 34; read-out: Kd of Rev-RRE complex; cited from earlier work

B1: TAR G to U (loop) (ssRNA)
RNA: GGGUCUCUCUGGUUAGACCAGAUUUGAGCCUUUUAGCUCUCUGGCUAACUAGGGAACCC
- Kd (HIV-1 Tat [1]): 25 nM

B2: TAR G28 to C28; C37 to G37 (ssRNA)
RNA: B1 RNA with G28C, U32G, U33G, U34G, C37G
- Kd (HIV-1 Tat [2]): 24 nM

Molecule: GCCAGAUUUGAGCCUGGGAGCUCUCUGGC (ssRNA) [29-mer top part of TAR]
- IC50 (HIV-1 Tat [3]): 100 nM

B3: HIV-2 TAR RNA first stem-loop (ssRNA)
RNA: CUGCGGAGAGGCUGGCAGAUUGAGCCCUGGGAGGUUCUCUCCAGCACUAGCAG
- Kd (HIV-1 Tat [4]): 30 nM

B4: 18-mer + 15-mer TAR duplex (dsRNA)
RNA 1: AGCCAGAUUUGAGCAGCU
RNA 2: AGCUGCUCUCUGGCU
- IC50 (HIV-1 Tat [5]): 65 nM

B5: 18+15 duplex 4-thioT-25 (dsRNA)
RNA 1: AGCCAGAUUTGAGCAGCU
RNA 2: AGCUGCUCUCUGGCU
modifications: 4-thio-2'-deoxythymidine at U25 (nt 10) [10 (strand 1, 4-thio-2'-deoxythymidine)]
- IC50 (HIV-1 Tat [6]): 12 nM

B6: TAR delta U (bulge) (ssRNA)
RNA: GGGUCUCUCUGGUUAGACCAGAGAGCCUGGGAGCUCUCUGGCUAACUAGGGAACCC
- Kd (HIV-1 Tat [7]): > 70 nM

B7: TAR G28 to C28 (ssRNA)
RNA: B1 RNA with G28C, U32G, U33G, U34G
- Kd (HIV-1 Tat [8]): > 100 nM

B8: Antisense TAR (ssRNA)
RNA: GGGUUCCCUAGUUAGCCAGAGAGCUCCCAGGCUCAAAUCUGGUCUAACCAGAGAGACCC
- Kd (HIV-1 Tat [9]): > 140 nM

B9: RRE: rev-responsive element, 243-nucleotide long sequence within the env gene (nucleic acid)
chain: CAGUGGGAAUAGGAGCUUUGUUCCUUGGGUUCUUGGGAGCAGCAGGAAGCACUAUGGGCGCAGCGUCAAUGACGCUGACGGUACAGGCCAGACAAUUAUUGUCUGGUAUAGUGCAGCAGCAGAACAAUUUGCUGAGGGCUAUUGAGGCGCAACAGCAUCUGUUGCAACUCAAGUCUGGGGCAUCAAGCAGCUCCAGGCAAGAAUCCUGGCUGUGGAAAGAUACCUAAAGGAUCAACAGCUCCU
- Kd (Rev): 3 nM
